Data taken from EP4034238B1 (Centro Nacional de Investigaciones Cardiovasculares Carlos …, dated 2025).

Key:
[1] = target: T1, Aldehyde Dehydrogenase 4 Family Member A1 (ALDH4A1), endogenous mouse protein from aorta lysate (mouse, UniProt Q8CHT0 24-562); test: deep proteomics analysis (IP + mass spectrometry)
T1 construct: Native protein precipitated from mouse aorta lysates; also called ALDH4A1 mitochondrial protein
T1 sequence (looked up): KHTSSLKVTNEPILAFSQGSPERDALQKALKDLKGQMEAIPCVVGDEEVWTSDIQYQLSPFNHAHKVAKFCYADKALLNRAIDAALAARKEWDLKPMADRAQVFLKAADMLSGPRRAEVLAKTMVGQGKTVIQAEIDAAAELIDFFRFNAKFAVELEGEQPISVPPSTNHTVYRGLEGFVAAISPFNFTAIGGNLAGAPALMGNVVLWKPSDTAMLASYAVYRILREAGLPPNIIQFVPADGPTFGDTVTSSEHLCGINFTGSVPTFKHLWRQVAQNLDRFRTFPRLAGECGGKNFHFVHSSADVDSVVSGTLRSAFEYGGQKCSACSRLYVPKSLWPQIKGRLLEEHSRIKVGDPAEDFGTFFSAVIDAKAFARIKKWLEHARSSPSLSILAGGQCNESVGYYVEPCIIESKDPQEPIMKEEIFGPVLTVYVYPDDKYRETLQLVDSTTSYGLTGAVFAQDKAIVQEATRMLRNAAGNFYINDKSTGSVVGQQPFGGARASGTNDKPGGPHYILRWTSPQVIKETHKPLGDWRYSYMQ

[2] = target: T2, ALDH4A1-FLAG protein (mouse ALDH4A1, C-Flag tag) (mouse, UniProt Q8CHT0 24-562, limits assumed); test: ELISA screen for ALDH4A1 reactivity (mark in Table 1)
T2 construct: Purified on anti-FLAG M2 gel and coated at 5 ug/ml in the ELISAs; used as lysate of transfected HEK293T cells in the IP; also called murine ALDH4A1-FLAG; not shown: C-terminal FLAG tag
T2 sequence (looked up): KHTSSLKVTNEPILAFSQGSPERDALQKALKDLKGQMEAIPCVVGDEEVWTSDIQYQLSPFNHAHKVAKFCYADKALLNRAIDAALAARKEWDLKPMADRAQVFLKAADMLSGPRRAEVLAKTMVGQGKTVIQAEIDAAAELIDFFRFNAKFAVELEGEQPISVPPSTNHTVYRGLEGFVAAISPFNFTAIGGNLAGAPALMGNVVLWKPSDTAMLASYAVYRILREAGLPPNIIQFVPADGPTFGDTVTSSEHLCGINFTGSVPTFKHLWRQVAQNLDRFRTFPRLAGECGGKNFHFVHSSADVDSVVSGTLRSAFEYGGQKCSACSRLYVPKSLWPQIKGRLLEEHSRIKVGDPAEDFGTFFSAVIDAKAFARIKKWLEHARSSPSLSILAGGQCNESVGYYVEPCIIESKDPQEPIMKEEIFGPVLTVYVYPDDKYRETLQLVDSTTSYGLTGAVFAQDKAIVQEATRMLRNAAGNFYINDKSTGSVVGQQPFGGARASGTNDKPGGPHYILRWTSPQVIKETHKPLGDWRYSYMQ

- binding result [1]: binds
- binding result [2]: binds
B1: A12 antibody (antibody, human IgG1, V domains shown)
VH: EVQLVESGGDLVKPGGSLKLSCAASGFTFSSYGMSWVRQTPDKRLEWVATISSGGSYTYYPDSVKGRFTISRDNAKNTLYLQMSSLKSEDTAMYYCARPHVVTTPGWYFDVWGTGTTVTVSS
VL: DIVMTQSPATLSVTPGDRVSLSCRASQSISDYLHWYQQKSHESPRLLIKYASQSISGIPSRFSGSGSGSDFTLSINSVEPEDVGVYYCQNGHSFPLTFGAGTKLELK
notes: also called huA12-IgG1
